Experimental data as given in paper PMC5767323, “Differential NtcA Responsiveness to 2-Oxoglutarate Underlies the Diversity of C/N Balance Regulation in Prochlorococcus” (Frontiers in Microbiology, 2018).

Assays:
NtcA [1] = biological target: T1, NtcA (Prochlorococcus marinus, UniProt Q7VDU1); test: ITC of NtcA-dsDNA at varied 2OG, ternary equilibrium fit; supported by SPR and EMSA; assay type: binding
T1 construct: recombinant His6-tagged NtcA (pET-15b)
T1 sequence (Q7VDU1 1-244): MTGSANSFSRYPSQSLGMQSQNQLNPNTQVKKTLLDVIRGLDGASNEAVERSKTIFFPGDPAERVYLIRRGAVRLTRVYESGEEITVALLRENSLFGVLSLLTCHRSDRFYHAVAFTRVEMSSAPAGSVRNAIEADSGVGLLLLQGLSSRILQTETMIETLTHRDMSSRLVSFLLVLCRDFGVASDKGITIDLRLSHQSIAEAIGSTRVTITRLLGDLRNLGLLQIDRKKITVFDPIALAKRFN

NtcA [2] = biological target: T2, NtcA (Prochlorococcus marinus, UniProt Q7TUN1); test: as above; assay type: binding
T2 construct: recombinant His6-tagged NtcA (pET-15b)
T2 sequence (Q7TUN1 1-222): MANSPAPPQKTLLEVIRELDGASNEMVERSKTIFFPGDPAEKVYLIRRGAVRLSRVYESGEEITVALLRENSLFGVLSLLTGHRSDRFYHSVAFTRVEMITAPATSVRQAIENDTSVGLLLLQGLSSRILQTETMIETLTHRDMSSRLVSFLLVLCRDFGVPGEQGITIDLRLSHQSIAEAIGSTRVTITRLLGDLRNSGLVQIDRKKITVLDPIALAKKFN

NtcA [3] = biological target: T3, NtcA (Prochlorococcus marinus, UniProt Q7TUG3); test: ITC of NtcA-dsDNA at varied 2OG, ternary equilibrium fit; assay type: binding
T3 construct: recombinant His6-tagged NtcA (pET-15b)
T3 sequence (Q7TUG3 1-244): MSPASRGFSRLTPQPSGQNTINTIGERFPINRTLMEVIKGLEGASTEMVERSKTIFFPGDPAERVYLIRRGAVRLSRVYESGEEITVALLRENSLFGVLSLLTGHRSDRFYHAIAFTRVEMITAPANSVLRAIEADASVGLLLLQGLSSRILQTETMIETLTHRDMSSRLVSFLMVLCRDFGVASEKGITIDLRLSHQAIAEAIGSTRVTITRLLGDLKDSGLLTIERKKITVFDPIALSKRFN

[4] = biological target: T4, NtcA SS120 (Prochlorococcus sp. SS120) (UniProt Q7VDU1); test: ITC; conditions: ITC: 50 mM Hepes, 350 mM NaCl, pH 7.5, 25 C, 0-10 mM 2OG, SPR: Biacore X, CM5 with neutravidin, buffer not given, EMSA: as Napolitano et al. 2012, 1 uM …
T4 sequence: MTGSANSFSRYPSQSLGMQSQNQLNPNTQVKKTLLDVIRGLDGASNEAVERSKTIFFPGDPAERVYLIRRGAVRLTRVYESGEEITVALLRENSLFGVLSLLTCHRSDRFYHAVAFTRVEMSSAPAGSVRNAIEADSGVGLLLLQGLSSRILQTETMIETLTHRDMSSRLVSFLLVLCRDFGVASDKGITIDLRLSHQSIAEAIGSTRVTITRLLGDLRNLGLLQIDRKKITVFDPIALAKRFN

NtcA MED4 [5] = biological target: T5, NtcA MED4 (Prochlorococcus sp. MED4, UniProt Q7TUG3 1-244); test: ITC; saturating 2OG (Kd,eff = Kd/alpha, extrapolated from fit); ITC: 50 mM Hepes, 350 mM NaCl, pH 7.5, 25 C, 0-10 mM 2OG; SPR: Biacore X, CM5 with neutravidin, 25 C, buffer not given; EMSA: as Napolitano et al. 2012, 1 uM NtcA; conditions: protein: recombinant; tags: His6 (pET-15b); chain copies: 2; blunt
T5 sequence: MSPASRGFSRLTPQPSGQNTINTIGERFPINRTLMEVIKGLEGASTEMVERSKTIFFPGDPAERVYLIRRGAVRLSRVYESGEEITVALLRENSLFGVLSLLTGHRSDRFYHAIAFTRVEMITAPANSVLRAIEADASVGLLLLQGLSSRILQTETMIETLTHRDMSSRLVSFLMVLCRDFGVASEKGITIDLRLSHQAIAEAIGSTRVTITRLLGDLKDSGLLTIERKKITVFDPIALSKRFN

NtcA MIT9313 = biological target: T6, NtcA MIT9313 (Prochlorococcus sp. MIT9313, UniProt Q7TUN1 1-222); test: as above; conditions: protein: recombinant; tags: His6 (pET-15b); chain copies: 2; blunt
T6 sequence: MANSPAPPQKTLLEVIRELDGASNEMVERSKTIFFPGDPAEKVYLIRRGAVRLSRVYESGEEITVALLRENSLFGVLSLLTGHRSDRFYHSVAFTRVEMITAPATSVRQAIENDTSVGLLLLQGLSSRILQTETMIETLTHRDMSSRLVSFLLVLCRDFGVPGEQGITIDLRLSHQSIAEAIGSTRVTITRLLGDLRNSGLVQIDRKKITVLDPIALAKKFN

NtcA MED4 [6] = biological target: T5, NtcA MED4; test: ITC; independent of 2OG; ITC: 50 mM Hepes, 350 mM NaCl, pH 7.5, 25 C, 0-10 mM 2OG; SPR: Biacore X, CM5 with neutravidin, 25 C, buffer not given; EMSA: as Napolitano et al. 2012, 1 uM NtcA; conditions: protein: recombinant; tags: His6 (pET-15b); chain copies: 2; blunt
NtcA SS120 = biological target: T7, NtcA SS120 (Prochlorococcus sp. SS120, UniProt Q7VDU1 1-244); test: ITC; saturating 2OG (Kd,eff = Kd/alpha, extrapolated from fit); ITC: 50 mM Hepes, 350 mM NaCl, pH 7.5, 25 C, 0-10 mM 2OG; SPR: Biacore X, CM5 with neutravidin, 25 C, buffer not given; EMSA: as Napolitano et al. 2012, 1 uM NtcA; conditions: protein: recombinant; tags: His6 (pET-15b); chain copies: 2; blunt
T7 sequence: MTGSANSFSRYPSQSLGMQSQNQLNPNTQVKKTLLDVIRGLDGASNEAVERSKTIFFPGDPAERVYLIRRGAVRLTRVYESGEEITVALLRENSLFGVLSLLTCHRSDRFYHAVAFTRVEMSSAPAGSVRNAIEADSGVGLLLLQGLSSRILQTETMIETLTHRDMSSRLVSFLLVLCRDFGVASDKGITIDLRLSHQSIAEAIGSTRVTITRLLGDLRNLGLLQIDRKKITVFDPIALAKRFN

Which Kd (NtcA [1]) does the source give for `O=C(O)CCC(=O)C(=O)O` [2OG, 2-oxoglutarate] here?
The Kd was 42 ± 3 mM.

And the Kd (NtcA [2])?
The Kd was 19 ± 2 mM.

And the Kd (NtcA [3])?
Its Kd is 36 ± 3 mM.

For “CCAATAAGCCCCACACGGCATTATTG (double strand) [DNA4, glnA promoter SS120 mutated]”, which Kd [4] is on record?
The Kd was 10 µM.

B1: DNA5, glnA promoter MED4 wt (dsDNA)
DNA 1: AAAAAGTTACCTTTGATACATAAT
DNA 2: ATTATGTATCAAAGGTAACTTTTT
With B1 as the molecule, how does the Kd (NtcA MED4 [5]) read?
Its Kd is 500 ± 100 nM.

B2: DNA1, glnA promoter MIT9313 wt (dsDNA)
DNA 1: TAGAAGGTACCTGTTGCTACAAAAAG
DNA 2: CTTTTTGTAGCAACAGGTACCTTCTA
For B2, which Kd (NtcA MIT9313) is on record?
Its Kd is 60 ± 10 nM.

B3: DNA6, glnA promoter MED4 mutated (dsDNA)
DNA 1: AAAAACTAACCTTTGACTGATAAT
DNA 2: ATTATCAGTCAAAGGTTAGTTTTT
How did the Kd (NtcA MED4 [6]) turn out when B3 was run?
Its Kd is 9.5 ± 0.9 µM.

B4: DNA3, glnA promoter SS120 wt (dsDNA)
DNA 1: CCAATAGTCACAAAAAGTACTTATTG
DNA 2: CAATAAGTACTTTTTGTGACTATTGG
Which Kd (NtcA SS120) does the source give for B4 here?
Its Kd is 800 ± 200 nM.
